Laboratory results reported in the Human Domainome abundance scans (Beltran et al. 2025).
± gives the uncertainty stated by the source.

B1: Dynamin-binding protein, residues 242 to 304; numbered along this chain, Q6XZF7 (parent)
chain: EEPGTYGVALYRFQALEPNELDFEVGDKIRILATLEDGWLEGSLKGRTGIFPYRFVKLCPDTR

Variants of: B1
Test: abundance fitness (aPCA) (normalised: wild type 0, dead -1); higher = more abundant; growth selection in yeast, the domain comes from the species named
Conditions: Homo sapiens

In order of rising abundance fitness:
1. EEPGTYGVALYRFQALEPNEDDFEVGDKIRILATLEDGWLEGSLKGRTGIFPYRFVKLCPDTR [L21D]  -1.03 ± 0.39
2. EEPGTYGVALYRFQALEPNEYDFEVGDKIRILATLEDGWLEGSLKGRTGIFPYRFVKLCPDTR [L21Y]  -1.03 ± 0.26
3. EEPGTYGVALYRFQALEPNEADFEVGDKIRILATLEDGWLEGSLKGRTGIFPYRFVKLCPDTR [L21A]  -1.01 ± 0.17
4. EEPGTYGVALYRFQALEPNEGDFEVGDKIRILATLEDGWLEGSLKGRTGIFPYRFVKLCPDTR [L21G]  -0.96 ± 0.13
5. EEPGTYGVALYRFQALEPNELIFEVGDKIRILATLEDGWLEGSLKGRTGIFPYRFVKLCPDTR [D22I]  -0.913 ± 0.11
6. EEPGTYGVALYRFQALEPNEMDFEVGDKIRILATLEDGWLEGSLKGRTGIFPYRFVKLCPDTR [L21M]  -0.852 ± 0.32
7. EEPGTYGVALYRFQALEPNECDFEVGDKIRILATLEDGWLEGSLKGRTGIFPYRFVKLCPDTR [L21C]  -0.851 ± 0.1
8. EEPGTYGVALYRFQALEPNENDFEVGDKIRILATLEDGWLEGSLKGRTGIFPYRFVKLCPDTR [L21N]  -0.843 ± 0.28
9. EEPGTYGVALYRFQALEPNERDFEVGDKIRILATLEDGWLEGSLKGRTGIFPYRFVKLCPDTR [L21R]  -0.839 ± 0.11
10. EEPGTYGVALYRFQALEPNEPDFEVGDKIRILATLEDGWLEGSLKGRTGIFPYRFVKLCPDTR [L21P]  -0.782 ± 0.19
11. EEPGTYGVALYRFQALEPNEFDFEVGDKIRILATLEDGWLEGSLKGRTGIFPYRFVKLCPDTR [L21F]  -0.771 ± 0.091
12. EEPGTYGVALYRFQALEPNEKDFEVGDKIRILATLEDGWLEGSLKGRTGIFPYRFVKLCPDTR [L21K]  -0.744 ± 0.42
13. EEPGTYGVALYRFQALEPPELDFEVGDKIRILATLEDGWLEGSLKGRTGIFPYRFVKLCPDTR [N19P]  -0.704 ± 0.15
14. EEPGTYGVALYRFQALEPNELVFEVGDKIRILATLEDGWLEGSLKGRTGIFPYRFVKLCPDTR [D22V]  -0.682 ± 0.084
15. EEPGTYGVALYRFQALEPIELDFEVGDKIRILATLEDGWLEGSLKGRTGIFPYRFVKLCPDTR [N19I]  -0.644 ± 0.087
16. EEPGTYGVALYRFQALEPNEEDFEVGDKIRILATLEDGWLEGSLKGRTGIFPYRFVKLCPDTR [L21E]  -0.643 ± 0.38
17. EEPGTYGVALYRFQALEPNEIDFEVGDKIRILATLEDGWLEGSLKGRTGIFPYRFVKLCPDTR [L21I]  -0.636 ± 0.19
18. EEPGTYGVALYRFQALEPNELWFEVGDKIRILATLEDGWLEGSLKGRTGIFPYRFVKLCPDTR [D22W]  -0.624 ± 0.18
19. EEPGTYGVALYRFQALEPNEVDFEVGDKIRILATLEDGWLEGSLKGRTGIFPYRFVKLCPDTR [L21V]  -0.619 ± 0.097
20. EEPGTYGVALYRFQALEPNESDFEVGDKIRILATLEDGWLEGSLKGRTGIFPYRFVKLCPDTR [L21S]  -0.542 ± 0.078
21. EEPGTYGVALYRFQALEPNETDFEVGDKIRILATLEDGWLEGSLKGRTGIFPYRFVKLCPDTR [L21T]  -0.522 ± 0.09
22. EEPGTYGVALYRFQALEPLELDFEVGDKIRILATLEDGWLEGSLKGRTGIFPYRFVKLCPDTR [N19L]  -0.52 ± 0.086
23. EEPGTYGVALYRFQALEPMELDFEVGDKIRILATLEDGWLEGSLKGRTGIFPYRFVKLCPDTR [N19M]  -0.494 ± 0.31
24. EEPGTYGVALYRFQALEPNEHDFEVGDKIRILATLEDGWLEGSLKGRTGIFPYRFVKLCPDTR [L21H]  -0.469 ± 0.13
25. EEPGTYGVALYRFQALEPNEQDFEVGDKIRILATLEDGWLEGSLKGRTGIFPYRFVKLCPDTR [L21Q]  -0.455 ± 0.2
26. EEPGTYGVALYRFQALEPNELMFEVGDKIRILATLEDGWLEGSLKGRTGIFPYRFVKLCPDTR [D22M]  -0.301 ± 0.13
27. EEPGTYGVALYRFQALEPSELDFEVGDKIRILATLEDGWLEGSLKGRTGIFPYRFVKLCPDTR [N19S]  -0.275 ± 0.05
28. EEPGTYGVALYRFQALEPKELDFEVGDKIRILATLEDGWLEGSLKGRTGIFPYRFVKLCPDTR [N19K]  -0.227 ± 0.14
29. EEPGTYGVALYRFQALEPNELRFEVGDKIRILATLEDGWLEGSLKGRTGIFPYRFVKLCPDTR [D22R]  -0.185 ± 0.058
30. EEPGTYGVALYRFQALEPRELDFEVGDKIRILATLEDGWLEGSLKGRTGIFPYRFVKLCPDTR [N19R]  -0.167 ± 0.069
31. EEPGTYGVALYRFQALEPNELCFEVGDKIRILATLEDGWLEGSLKGRTGIFPYRFVKLCPDTR [D22C]  -0.125 ± 0.052
32. EEPGTYGVALYRFQALEPNELYFEVGDKIRILATLEDGWLEGSLKGRTGIFPYRFVKLCPDTR [D22Y]  -0.108 ± 0.051
33. EEPGTYGVALYRFQALEPNELKFEVGDKIRILATLEDGWLEGSLKGRTGIFPYRFVKLCPDTR [D22K]  -0.062 ± 0.16
34. EEPGTYGVALYRFQALEPNELTFEVGDKIRILATLEDGWLEGSLKGRTGIFPYRFVKLCPDTR [D22T]  -0.054 ± 0.062
35. EEPGTYGVALYRFQALEPNELNFEVGDKIRILATLEDGWLEGSLKGRTGIFPYRFVKLCPDTR [D22N]  -0.04 ± 0.052
36. EEPGTYGVALYRFQALEPNELGFEVGDKIRILATLEDGWLEGSLKGRTGIFPYRFVKLCPDTR [D22G]  -0.02 ± 0.051
37. EEPGTYGVALYRFQALEPNELFFEVGDKIRILATLEDGWLEGSLKGRTGIFPYRFVKLCPDTR [D22F]  -0.016 ± 0.059
38. EEPGTYGVALYRFQALEPNELEFEVGDKIRILATLEDGWLEGSLKGRTGIFPYRFVKLCPDTR [D22E]  0.043 ± 0.11
39. EEPGTYGVALYRFQALEPNELSFEVGDKIRILATLEDGWLEGSLKGRTGIFPYRFVKLCPDTR [D22S]  0.101 ± 0.046
40. EEPGTYGVALYRFQALEPNELQFEVGDKIRILATLEDGWLEGSLKGRTGIFPYRFVKLCPDTR [D22Q]  0.148 ± 0.11
41. EEPGTYGVALYRFQALEPNELPFEVGDKIRILATLEDGWLEGSLKGRTGIFPYRFVKLCPDTR [D22P]  0.157 ± 0.074
42. EEPGTYGVALYRFQALEPNELAFEVGDKIRILATLEDGWLEGSLKGRTGIFPYRFVKLCPDTR [D22A]  0.25 ± 0.058
